From publication PMC10388305, “Synthesis and Evaluation of a Monomethyl Auristatin E—Integrin αvβ6 Binding Peptide–Drug Conjugate for Tumor Targeted Drug Delivery” (Journal of Medicinal Chemistry, 2023)
Read-outs that look alike come from different tables or passages of the source.

Assay: Biodistribution, paired DX3puroβ6/DX3puro xenograft tumor mouse model
Assay type: in vivo, mice
Conditions: female, athymic nude, iv, total radioactivity, γ-counter, mean ± SD; for tissue uptake at 4 h / tissue uptake at 24 h / tissue uptake at 48 h: i.v.
Experimental: The biodistribution of [^64Cu]PDC-1 confirmed the αvβ6-selective tumor accumulation, with 4.46 ± 0.91% ID/g in the DX3puroβ6 (+) tumor at 4 h vs 0.56 ± 0.12% ID/g in the DX3puro (−) tumor (ratio = 8:1; Figure 6A, Table S3). […] For the BxPC-3 tumor, the uptake went from 4.61 ± 1.44% ID/g at 4 h to 3.73 ± 0.44 and 2.93 ± 0.80% ID/g, at 24 and 48 h, respectively (4 to 48 h: P = 0.054; Figure 6). […] Clearance from the blood was rapid, resulting in αvβ6 (+) tumor/blood ratios of ≥32:1 at 4 h (Table S5). [^64Cu]PDC-1 primarily cleared through the kidneys, from 50 to 64% ID/g at 4 h to ≤25% ID/g at 48 h (Figure 6). […] Accumulation in the liver remained steady between 1.5 and 2.2% ID/g at 4 to 48 h, and uptake in other organs such as muscle (≤0.9% ID/g) and pancreas (≤0.5% ID/g) was low at all time points (Figure 6).
All animal procedures conformed to the Animal Welfare Act and were approved by the University of California Davis Institutional Animal Care and Use Committee. All mice used for in vivo work were female athymic nude mice (6–8 weeks old) purchased from Charles River Laboratories (Wilmington, MA). For PET imaging and biodistribution studies, female athymic nude mice (6–8 weeks old) were injected subcutaneously with 3 × 10^6 DX3puro and 3 × 10^6 DX3puroβ6 cells in serum free DMEM on the right and left flank, respectively, or with 5 × 10^6 BxPC-3 cells in serum free RPMI 1640/Matrigel (1/1 v/v). Studies commenced once tumors reached a maximum diameter of ∼0.5 cm, approximately 3 weeks after inoculation. Food and water were available ad libitum. [^64Cu]PDC-1 was formulated in isotonic 0.9% saline to pH = 7.2 and administered intravenously (i.v.) via a catheter into the tail vein.
Aliquots of the formulated [^64Cu]PDC-1 in isotonic 0.9% saline (4.81–5.74 MBq, 1.7–2.1 μg, 0.26–0.31 nmol, 100 μL, pH 7.2) were injected i.v. as described above. Following the conscious uptake period, the mice were anesthetized (5% isoflurane), euthanized, and dissected (n ≥ 3/model/time point [4, 24, and 48 h]; the 48 h time point also included the imaging animals sacrificed after the PET scans). Tissues were collected, washed, weighed, and radioactivity measured in a γ-counter. Calibrated, decay-corrected radioactivity was expressed as the percentage of injected dose per gram of tissue (% ID/g). Data are reported as mean ± SD. The mean weights and standard deviation of the DX3puroβ6/DX3puro paired tumor model biodistribution mice were 24.3 ± 1.4 g at 4 h, 28.2 ± 2.9 g at 24 h, and 27.7 ± 2.6 g at 48 h. The mean weights and standard deviation of the BxPC-3 tumor model biodistribution mice were 25.1 ± 1.9 g at 4 h, 27.0 ± 1.1 g at 24 h and 27.1 ± 3.2 g at 48 h. For in vivo blocking studies, DOTA-2 (50 mg/kg, 205 nmol, 1.4 mg in 100 μL 0.9% saline) was injected i.v. into two animals/tumor model 10 min prior to [^64Cu]PDC-1. The animals were sacrificed after 4 h, tissues collected, washed, weighed, and radioactivity measured in a γ-counter. The mean weights and standard deviation for the blocking mice were 24.6 ± 0 and 27.9 ± 0.3 g for the DX3puroβ6/DX3puro paired and BxPC-3 tumor models, respectively.
Biodistribution data of [64Cu]PDC-1 in paired DX3puroβ6/DX3puro tumor model.
Table S3. Biodistribution of [ 64Cu]PDC-1 in mice bearing paired DX3puroβ6/DX3puro xenograft tumors.
Tissue uptake is expressed as the mean of the percentage of injected dose per gram of tissue ± standard
deviation (n = 4/ time point; n = 9 at 48 h); an = 3, bn = 8, cn = 7.

## CC[C@H](C)[C@@H]([C@@H](CC(=O)N1CCC[C@H]1[C@H](OC)[C@@H](C)C(=O)N[C@H](C)[C@@H](O)c1ccccc1)OC)N(C)C(=O)[C@@H](NC(=O)[C@H](C(C)C)N(C)C(=O)OCc1ccc(NC(=O)[C@H](CCCNC(N)=O)NC(=O)[C@@H](NC(=O)CCOCCOCCNC(=O)CCN2C(=O)CC(SC[C@H](NC(=O)CN3CCN(CC(=O)O)CCN(CC(=O)O)CCN(CC(=O)O)CC3)C(=O)NCCOCCOCCOCCOCCOCCOCCOCCOCCOCCOCCOCCOCCOCCOCCOCCOCCOCCOCCOCCOCCOCCOCCOCCOCCOCCOCCOCCOCCC(=O)N[C@@H](CC(N)=O)C(=O)N[C@@H](C)C(=O)N[C@H](C(=O)N3CCC[C@H]3C(=O)N[C@@H](CC(N)=O)C(=O)N[C@@H](CC(C)C)C(=O)N[C@@H](CCCNC(=N)N)C(=O)NCC(=O)N[C@@H](CC(=O)O)C(=O)N[C@@H](CC(C)C)C(=O)N[C@@H](CCC(N)=O)C(=O)N[C@H](C(=O)N[C@@H](CC(C)C)C(=O)N[C@@H](C)C(=O)N[C@@H](CCC(N)=O)C(=O)N[C@@H](CCCNC(=N)N)C(=O)N[C@H](C(=O)N[C@@H](C)C(=O)N[C@@H](CCCNC(=N)N)C(=O)N[C@H](C(=O)NCCOCCOCCOCCOCCOCCOCCOCCOCCOCCOCCOCCOCCOCCOCCOCCOCCOCCOCCOCCOCCOCCOCCOCCOCCOCCOCCOCCOCCC(N)=O)[C@@H](C)O)C(C)C)C(C)C)C(C)C)C2=O)C(C)C)cc1)C(C)C (stereo partly drawn) [[^64Cu]PDC-1, metal not drawn]
DX3puro (αvβ6 −) tumor, 4 h p.i., n = 4, read-out: DX3puro (αvβ6 −) tumor uptake
  tissue uptake at 4 h: 0.56 ± 0.12 %ID/g
DX3puro (αvβ6 −) tumor, 24 h p.i., n = 3, read-out: DX3puro (αvβ6 −) tumor uptake
  tissue uptake at 24 h: 1.03 ± 0.12 %ID/g
DX3puro (αvβ6 −) tumor, 48 h p.i., n = 8, read-out: DX3puro (αvβ6 −) tumor uptake
  tissue uptake at 48 h: 0.74 ± 0.2 %ID/g
DX3puroβ6 (αvβ6 +) tumor, 4 h p.i., n = 4, read-out: DX3puroβ6 (αvβ6 +) tumor uptake
  tissue uptake at 4 h: 4.46 ± 0.91 %ID/g
DX3puroβ6 (αvβ6 +) tumor, 24 h p.i., n = 4, read-out: DX3puroβ6 (αvβ6 +) tumor uptake
  tissue uptake at 24 h: 3.39 ± 0.56 %ID/g
DX3puroβ6 (αvβ6 +) tumor, 48 h p.i., n = 9, read-out: DX3puroβ6 (αvβ6 +) tumor uptake
  tissue uptake at 48 h: 2.53 ± 0.37 %ID/g
bladder, 4 h p.i., n = 4, read-out: Bladder uptake
  tissue uptake at 4 h: 2.12 ± 0.62 %ID/g
bladder, 24 h p.i., n = 4, read-out: Bladder uptake
  tissue uptake at 24 h: 1.65 ± 0.44 %ID/g
bladder, 48 h p.i., n = 9, read-out: Bladder uptake
  tissue uptake at 48 h: 1.66 ± 0.28 %ID/g
blood, 4 h p.i., n = 4, read-out: Blood uptake
  tissue uptake at 4 h: 0.14 ± 0.02 %ID/g
blood, 24 h p.i., n = 4, read-out: Blood uptake
  tissue uptake at 24 h: 0.29 ± 0.03 %ID/g
blood, 48 h p.i., n = 9, read-out: Blood uptake
  tissue uptake at 48 h: 0.34 ± 0.09 %ID/g
bone, 4 h p.i., n = 4, read-out: Bone uptake
  tissue uptake at 4 h: 0.43 ± 0.18 %ID/g
bone, 24 h p.i., n = 4, read-out: Bone uptake
  tissue uptake at 24 h: 0.38 ± 0.08 %ID/g
bone, 48 h p.i., n = 9, read-out: Bone uptake
  tissue uptake at 48 h: 0.33 ± 0.1 %ID/g
brain, 4 h p.i., n = 4, read-out: Brain uptake
  tissue uptake at 4 h: 0.04 ± 0.01 %ID/g
brain, 24 h p.i., n = 4, read-out: Brain uptake
  tissue uptake at 24 h: 0.07 ± 0.01 %ID/g
brain, 48 h p.i., n = 9, read-out: Brain uptake
  tissue uptake at 48 h: 0.09 ± 0.03 %ID/g
Gall bladder, 4 h p.i., n = 4, read-out: Gall bladder uptake
  tissue uptake at 4 h: 3.64 ± 0.79 %ID/g
Gall bladder, 24 h p.i., n = 4, read-out: Gall bladder uptake
  tissue uptake at 24 h: 3.16 ± 0.49 %ID/g
Gall bladder, 48 h p.i., n = 9, read-out: Gall bladder uptake
  tissue uptake at 48 h: 1.42 ± 0.63 %ID/g
heart, 4 h p.i., n = 4, read-out: Heart uptake
  tissue uptake at 4 h: 0.82 ± 0.17 %ID/g
heart, 24 h p.i., n = 4, read-out: Heart uptake
  tissue uptake at 24 h: 0.84 ± 0.15 %ID/g
heart, 48 h p.i., n = 9, read-out: Heart uptake
  tissue uptake at 48 h: 0.85 ± 0.18 %ID/g
kidney, 4 h p.i., n = 4, read-out: Kidney uptake
  tissue uptake at 4 h: 63.9 ± 12.5 %ID/g
kidney, 24 h p.i., n = 4, read-out: Kidney uptake
  tissue uptake at 24 h: 41.2 ± 4.47 %ID/g
kidney, 48 h p.i., n = 9, read-out: Kidney uptake
  tissue uptake at 48 h: 22.9 ± 5.48 %ID/g
Large intestines, 4 h p.i., n = 4, read-out: Lg. Intestines uptake
  tissue uptake at 4 h: 6.25 ± 0.74 %ID/g
Large intestines, 24 h p.i., n = 4, read-out: Lg. Intestines uptake
  tissue uptake at 24 h: 3.98 ± 0.83 %ID/g
Large intestines, 48 h p.i., n = 9, read-out: Lg. Intestines uptake
  tissue uptake at 48 h: 3.04 ± 0.73 %ID/g
liver, 4 h p.i., n = 4, read-out: Liver uptake
  tissue uptake at 4 h: 1.34 ± 0.29 %ID/g
liver, 24 h p.i., n = 4, read-out: Liver uptake
  tissue uptake at 24 h: 2.25 ± 0.59 %ID/g
liver, 48 h p.i., n = 9, read-out: Liver uptake
  tissue uptake at 48 h: 2.15 ± 0.62 %ID/g
lung, 4 h p.i., n = 4, read-out: Lung uptake
  tissue uptake at 4 h: 3.08 ± 0.78 %ID/g
lung, 24 h p.i., n = 4, read-out: Lung uptake
  tissue uptake at 24 h: 2.19 ± 0.42 %ID/g
lung, 48 h p.i., n = 9, read-out: Lung uptake
  tissue uptake at 48 h: 1.71 ± 0.44 %ID/g
muscle, 4 h p.i., n = 4, read-out: Muscle uptake
  tissue uptake at 4 h: 0.89 ± 0.11 %ID/g
muscle, 24 h p.i., n = 4, read-out: Muscle uptake
  tissue uptake at 24 h: 0.56 ± 0.07 %ID/g
muscle, 48 h p.i., n = 9, read-out: Muscle uptake
  tissue uptake at 48 h: 0.48 ± 0.14 %ID/g
pancreas, 4 h p.i., n = 4, read-out: Pancreas uptake
  tissue uptake at 4 h: 0.36 ± 0.07 %ID/g
pancreas, 24 h p.i., n = 4, read-out: Pancreas uptake
  tissue uptake at 24 h: 0.45 ± 0.05 %ID/g
pancreas, 48 h p.i., n = 9, read-out: Pancreas uptake
  tissue uptake at 48 h: 0.52 ± 0.25 %ID/g
skin, 4 h p.i., n = 4, read-out: Skin uptake
  tissue uptake at 4 h: 1.96 ± 0.5 %ID/g
skin, 24 h p.i., n = 4, read-out: Skin uptake
  tissue uptake at 24 h: 1.26 ± 0.36 %ID/g
skin, 48 h p.i., n = 9, read-out: Skin uptake
  tissue uptake at 48 h: 1 ± 0.34 %ID/g
Small intestines, 4 h p.i., n = 4, read-out: Sm. Intestines uptake
  tissue uptake at 4 h: 4.67 ± 0.66 %ID/g
Small intestines, 24 h p.i., n = 4, read-out: Sm. Intestines uptake
  tissue uptake at 24 h: 2.73 ± 0.28 %ID/g
Small intestines, 48 h p.i., n = 9, read-out: Sm. Intestines uptake
  tissue uptake at 48 h: 1.53 ± 0.21 %ID/g
spleen, 4 h p.i., n = 4, read-out: Spleen uptake
  tissue uptake at 4 h: 0.21 ± 0.08 %ID/g
spleen, 24 h p.i., n = 4, read-out: Spleen uptake
  tissue uptake at 24 h: 0.58 ± 0.03 %ID/g
spleen, 48 h p.i., n = 9, read-out: Spleen uptake
  tissue uptake at 48 h: 0.54 ± 0.12 %ID/g
stomach, 4 h p.i., n = 4, read-out: Stomach uptake
  tissue uptake at 4 h: 8.97 ± 0.76 %ID/g
stomach, 24 h p.i., n = 4, read-out: Stomach uptake
  tissue uptake at 24 h: 4.86 ± 0.56 %ID/g
stomach, 48 h p.i., n = 9, read-out: Stomach uptake
  tissue uptake at 48 h: 3 ± 0.56 %ID/g
urine, 4 h p.i., n = 4
  excreta dose per gram or mL at 4 h: 13 ± 2.4 %ID/g
urine, 24 h p.i., n = 4
  excreta dose per gram or mL at 24 h: 4.57 ± 0.87 %ID/g
urine, 48 h p.i., n = 7
  excreta dose per gram or mL at 48 h: 1.6 ± 0.47 %ID/g
